According to patent EP2319871A1 (Sanofi-Aventis, dated 2011):
Values joined by “and” are separate entries in the source; they are usually repeats but may differ in a detail not shown here. Equal entries are not always repeated. Each block holds one binder with its values, some of them ahead of it.

Tests used:
RAGE-Fc (human) = RAGE-Fc (human) (UniProt Q15109); experiment: competition ELISA, mAb 10 µg/mL + RAGE-Fc 10 µg/mL on coated S100A6 (competitor S100A6)
[1] = target: T1, sRAGE (V-C1-C2) lot LP08062 (human, UniProt Q15109 23-342); experiment: SPR (Biacore), mAb captured on anti-mouse Fc, sRAGE 15 nM, 1:1 Langmuir
T1 construct: extracellular domain; also called Human RAGE; LP08062 (Rage)
T1 sequence (Q15109 23-342): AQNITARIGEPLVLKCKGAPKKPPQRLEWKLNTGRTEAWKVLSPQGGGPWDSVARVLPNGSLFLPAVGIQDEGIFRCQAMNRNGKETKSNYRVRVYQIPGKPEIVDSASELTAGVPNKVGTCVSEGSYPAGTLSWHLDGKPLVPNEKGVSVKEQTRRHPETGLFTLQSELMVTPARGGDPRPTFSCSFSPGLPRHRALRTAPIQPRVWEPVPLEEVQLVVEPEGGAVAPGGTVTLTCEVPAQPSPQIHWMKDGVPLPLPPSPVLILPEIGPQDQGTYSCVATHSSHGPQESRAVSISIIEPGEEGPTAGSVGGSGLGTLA

RAGE-Fc [2] = target: T2, RAGE-Fc (human, UniProt Q15109 23-342, limits assumed); experiment: competition ELISA, RAGE-S100A6 interaction (competitor S100A6)
T2 construct: Format stated for the S100A12 and S100A6 ELISAs; also called hRAGE; not shown: Fc part, detected with anti-hIgG Fc-specific-POD
T2 sequence (Q15109 23-342 limits assumed): as the sequence (Q15109 23-342) above

RAGE-Fc [3] = target: T2, RAGE-Fc; experiment: competition ELISA, RAGE-Fc 10 µg/mL + diluted mAb on coated S100A6 (competitor S100A6)

Sequence of RAGE-Fc (human) (Q15109 23-342 limits assumed): as the sequence (Q15109 23-342) above

- inhibitory effect (RAGE-Fc (human)): > 20%
- Kd [1]: 0.687 nM
- koff [1]: 0.00265 s⁻¹
- kon [1]: 3.86e+06 M⁻¹ s⁻¹
B1: 152 RAGE-1 (antibody, V domains shown)
VH: DVQLQESGPDLVKPSQSLSLTCTVTGYSITSGYSWHWIRQFPGNKLEWMGYIHYSGSTNYNPSLKSRISITRDTSKNQFFLQLNSVTTEDTATYYCARGGDFAYWGQGTLVTVSA
VL: DIVLTQSPASLAVSLGQRATISCRASKSVGTSDSSYMHWYQQKPGQPPKLLIYLASNLESGVPARFSGSGSGTDFTLNIHPVEEEDAATYYCQHSRELYTFGGGTKLEIK
notes: Hybridoma monoclonal antibody, captured on anti-mouse Fc in Biacore; also called LP08104; Protein 152 RAGE-1

- Kd [1]: 0.236 nM
- koff [1]: 0.00136 s⁻¹
- kon [1]: 5.76e+06 M⁻¹ s⁻¹
B2: 130 RAGE-1 (antibody, V domains shown)
VH: EVQLVESGGGLVKPGGSLKLSCAASGFTFSSYVMSWVRQSPEKRLEWVAEISSGGSYTYYPDTVTGRFTISRDNDKNTLYLEMSSLRSEDTAMYYCARPPYGKDAMDYWGQGTSVTVSS
VL: QIVLTQSPAIMSASPGEKVTMTCSASSSVSYMHWYQQKSGTSPKRWISDTSKLASGVPARFSGSGSGTSYSLTISSMEAEDAATYYCQQWSSNPPTFGGGTKLEIK
notes: Hybridoma monoclonal antibody, captured on anti-mouse Fc in Biacore; also called Protein 130 RAGE-1

- IC50 (RAGE-Fc [2]): 7.7 nM
- IC50 (RAGE-Fc [3]): 1.16 µg/mL and 7.73 nM
- Kd [1]: 1.87 nM
- koff [1]: 0.00539 s⁻¹
- kon [1]: 2.89e+06 M⁻¹ s⁻¹
B3: 56 RAGE-1 (antibody, V domains shown)
VH: QVQLQQSGPELVKPGASVRISCKASGYTFTSYFIHWVKQRPGQGLEWIGWIYPGNVNTKYNEKFKDKATLTADKSSSTAYMQLSNLTSEDSAVYFCVRGQLGDYWGQGITLTVSS
VL: DIVMTQSQKFMSTSVGDRVSVTCKASQNVGINVAWYQQKPGQSPKALIYSASYRYSGVPDRFTGSGSGTDFTLIISNVQSEDLAEYFCQQYNNYPRTFGGGTKLEIK
notes: Hybridoma monoclonal antibody, captured on anti-mouse Fc in Biacore; also called LP08103; Protein 56 RAGE-1

- Kd [1]: 0.462 nM
- koff [1]: 0.00123 s⁻¹
- kon [1]: 2.66e+06 M⁻¹ s⁻¹
B4: 95 RAGE-1 (antibody, V domains shown)
VH: QVQLQQPGAELVKPGASVKLSCKASGYTFTSYWMHWVKQRPGQGLEWIGESNPSNGRTNYNEKFKNKATLTVDKSSSTAYMQLSSLTSEDSAVYYCARAPYYGFDYWGQGTTLTVSS
VL: QAVVTQESALTTSPGETVTLTCRSSTGAVTTSNYANWVQEKPDHLFTGLTGGTNNRAPGVPARFSGSLIGDKAALTITGAQTEDEAIYFCALWYSNHWVFGGGTKLTVL
notes: Hybridoma monoclonal antibody, captured on anti-mouse Fc in Biacore; also called Protein 95 RAGE-1

- Kd [1]: 0.303 nM
- koff [1]: 0.00157 s⁻¹
- kon [1]: 5.19e+06 M⁻¹ s⁻¹
B5: 140 RAGE-1 (antibody, V domains shown)
VH: QVQLQQPGAELVKPGASVRLSCKASGYTFTSYWMHWVKQRPGQGLEWIGEINPSNGRTNYNEKFKSKATLTVDKSSSTAYMQLSSLTSEDSAVYYCARDGLGYRPIAMDYWGQGTSVTVSS
VL: QIVLTQSPAIMSASPGEKVTISCSASSSVSYMYWYQQKPGSSPKPWIYRTSNLASGVPARFSGSGSGTSYSLTISSMEAEDAATYYCQQYHSYPPMYTFGGGTKLEIK
notes: Hybridoma monoclonal antibody, captured on anti-mouse Fc in Biacore; also called Protein 140 RAGE-1
